For assay [1], the target named is T1, P44A.
T1 construct: also called hCD27 P44A
T1 receptor: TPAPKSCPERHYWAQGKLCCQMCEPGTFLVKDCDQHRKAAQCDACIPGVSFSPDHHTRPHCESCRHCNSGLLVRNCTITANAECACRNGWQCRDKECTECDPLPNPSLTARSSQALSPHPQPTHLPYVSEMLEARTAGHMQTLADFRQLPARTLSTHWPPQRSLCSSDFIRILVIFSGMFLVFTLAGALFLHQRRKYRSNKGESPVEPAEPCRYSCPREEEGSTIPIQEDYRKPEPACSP
In words: flow cytometry, CHO-K1; sub-column 1 of 2. (In general: In flow cytometry, cells or beads pass a laser one at a time.)

Assay [2] addresses T2, V49A.
T2 construct: also called hCD27 V49A
T2 receptor: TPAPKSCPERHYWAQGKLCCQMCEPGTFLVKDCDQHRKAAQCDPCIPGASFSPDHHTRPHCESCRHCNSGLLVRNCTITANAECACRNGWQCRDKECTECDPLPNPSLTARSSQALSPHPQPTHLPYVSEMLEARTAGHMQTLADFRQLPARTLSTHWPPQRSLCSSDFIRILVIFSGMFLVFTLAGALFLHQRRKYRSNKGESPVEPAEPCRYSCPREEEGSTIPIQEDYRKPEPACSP
In words: flow cytometry, CHO-K1; sub-column 1 of 2.

Assay [3] concerns the target T3, G89A.
T3 construct: also called hCD27 G89A
T3 receptor: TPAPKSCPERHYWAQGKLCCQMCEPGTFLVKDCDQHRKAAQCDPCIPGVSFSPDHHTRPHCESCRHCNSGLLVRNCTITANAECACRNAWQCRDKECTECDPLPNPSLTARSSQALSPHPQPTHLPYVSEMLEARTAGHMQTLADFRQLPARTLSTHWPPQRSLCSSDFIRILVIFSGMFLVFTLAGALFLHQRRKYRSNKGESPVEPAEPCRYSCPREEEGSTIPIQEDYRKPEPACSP
Briefly: flow cytometry, CHO-K1; sub-column 1 of 2.

Assay [4] has as its target T4, P8A.
T4 construct: also called hCD27 P8A
T4 receptor: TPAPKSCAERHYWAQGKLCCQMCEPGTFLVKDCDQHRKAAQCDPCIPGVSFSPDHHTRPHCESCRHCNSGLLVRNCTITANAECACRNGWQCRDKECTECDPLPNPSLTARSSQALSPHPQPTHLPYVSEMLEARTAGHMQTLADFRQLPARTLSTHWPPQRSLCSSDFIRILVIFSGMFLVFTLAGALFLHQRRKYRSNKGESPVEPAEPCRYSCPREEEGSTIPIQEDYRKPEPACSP
In words: flow cytometry, CHO-K1; sub-column 1 of 2.

Assay [5] has as its target human CD27 (A59T), expressed on cells (human) (UniProt P26842). In words: cell-based or functional assay.
Assay [6] has as its target human CD27 (wild type), expressed on cells (human) (UniProt P26842). In words: cell-based or functional assay.
In a further assay the target is D32A. In words: flow cytometry, CHO-K1; sub-column 2 of 2.
In another assay the target is D43A. Briefly: flow cytometry, CHO-K1; sub-column 2 of 2.
In a further assay the target is E9A. Briefly: flow cytometry, CHO-K1; sub-column 2 of 2.
A further assay has as its target F28A. Briefly: flow cytometry, CHO-K1; sub-column 2 of 2.
For another assay, the target named is G16A. In words: flow cytometry, CHO-K1; sub-column 2 of 2.
For assay [7], the target named is G89A. In words: flow cytometry, CHO-K1; sub-column 2 of 2.
For another assay, the target named is H36A. In words: flow cytometry, CHO-K1; sub-column 2 of 2.
In the next assay the target is H60A. Briefly: flow cytometry, CHO-K1; sub-column 2 of 2.
The next assay addresses I46A. In words: flow cytometry, CHO-K1; sub-column 2 of 2.
The next assay deals with K17A. Briefly: flow cytometry, CHO-K1; sub-column 2 of 2.
The target of another assay is K31A. In words: flow cytometry, CHO-K1; sub-column 2 of 2.
The target in the next assay is K38A. Briefly: flow cytometry, CHO-K1; sub-column 2 of 2.
The target of another assay is N88A. Briefly: flow cytometry, CHO-K1; sub-column 2 of 2.
Assay [8] has as its target P44A. In words: flow cytometry, CHO-K1; sub-column 2 of 2.
Assay [9] concerns the target P8A. Briefly: flow cytometry, CHO-K1; sub-column 2 of 2.
For another assay, the target named is Q15A. In words: flow cytometry, CHO-K1; sub-column 2 of 2.
In a further assay the target is Q41A. In words: flow cytometry, CHO-K1; sub-column 2 of 2.
The next assay has as its target Q91A. Briefly: flow cytometry, CHO-K1; sub-column 2 of 2.
A further assay deals with R10A. In words: flow cytometry, CHO-K1; sub-column 2 of 2.
The next assay concerns the target R37A. In words: flow cytometry, CHO-K1; sub-column 2 of 2.
Another assay addresses R87A. In words: flow cytometry, CHO-K1; sub-column 2 of 2.
In a further assay the target is R93A. Briefly: flow cytometry, CHO-K1; sub-column 2 of 2.
The target in a further assay is S63A. Briefly: flow cytometry, CHO-K1; sub-column 2 of 2.
The next assay addresses V30A. Briefly: flow cytometry, CHO-K1; sub-column 2 of 2.
The target of assay [10] is V49A. Briefly: flow cytometry, CHO-K1; sub-column 2 of 2.
Another assay deals with W13A. In words: flow cytometry, CHO-K1; sub-column 2 of 2.
The target in another assay is W90A. In words: flow cytometry, CHO-K1; sub-column 2 of 2.
Assay [11] addresses human CD27 (wild type), expressed on cells (human) (UniProt P26842). In words: flow cytometry MFI on CD4+ T cells from peripheral blood.
Assay [12] addresses Macaca mulatta CD27 (mmCD27), expressed on cells (Macaca mulatta (rhesus); same entry given for cynomolgus monkey). Briefly: flow cytometry MFI on CD8+ T cells from rhesus peripheral blood.

Chain of Macaca mulatta CD27 (mmCD27), expressed on cells (Macaca mulatta (rhesus); same entry given for cynomolgus monkey) (chain, as listed by the source): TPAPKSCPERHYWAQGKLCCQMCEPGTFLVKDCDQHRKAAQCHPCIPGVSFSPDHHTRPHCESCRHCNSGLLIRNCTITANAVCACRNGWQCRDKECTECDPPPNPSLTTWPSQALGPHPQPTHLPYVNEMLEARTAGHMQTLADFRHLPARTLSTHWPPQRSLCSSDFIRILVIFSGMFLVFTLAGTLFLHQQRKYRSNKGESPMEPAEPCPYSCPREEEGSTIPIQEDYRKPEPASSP

For the molecule 1A4 (mouse IgG1) (antibody), the % of WT hCD27 binding (geo mean FITC) with P44A [1] was 146%; with V49A [2], 144%; with G89A [3] it was 100%; with P8A [4] it was 84.5%.
For 1F5 hIgG1 (antibody), the Emax (fold change), NF-κB-luciferase reporter assay was determined as 1.3 fold change in assay [5] and 1.48 fold change in [6]. Further, the Fold Change values at 2.5 µg/ml, NF-κB-luciferase reporter assay in [5] is 1.23 fold change; in assay [6], 1.34 fold change. The same molecule yielded an NF-κB luciferase activity, 10 µg/ml fold change (FIG. 7A) in assay [6] of 2.23 fold change. Besides, in [6], the NF-κB luciferase activity, 10 µg/ml fold change (FIG. 7B) came to 1.73 fold change. Moreover, the % of WT hCD27 binding (geo mean FITC) is 59.6% with D32A; 86.1% with D43A; 120% in the assay with E9A; 46.2% with F28A; 101% with G16A; 68.5% in the assay with G89A [7]. Further, the % of WT hCD27 binding (geo mean FITC) with H36A is 80%; with H60A, 110%; with I46A, 69.7%; with K17A it was 112%; with K31A it was 120%; in the assay with K38A it was 94.2%. Besides, the % of WT hCD27 binding (geo mean FITC) in the assay with N88A worked out at 119%; in the assay with P44A [8], 83.7%; with P8A [9], 73.1%; with Q15A, 127%; with Q41A, 66.3%; with Q91A, 115%. Moreover, the % of WT hCD27 binding (geo mean FITC) with R10A is 113%; in the assay with R37A it was 88%; with R87A, 7.8%; with R93A it was 85.5%; in the assay with S63A, 121%; with V30A, 88.9%. In addition, the % of WT hCD27 binding (geo mean FITC) in the assay with V49A [10] turned out to be 92.8%; with W13A, 82.8%; with W90A, 10%. For the same molecule, the EC50 – broadly, the concentration giving half of the maximal effect – in assay [11] was 1.54 nM; in assay [12] it was 1.92 nM.
For the molecule 9F4 (mouse IgG2a) (antibody), the % of WT hCD27 binding (geo mean FITC) in the assay with P44A [1] was determined as 159%; with V49A [2], 151%; with G89A [3], 116%; in the assay with P8A [4], 68.5%.

B1: Antibody hCD27.131A (mouse parental 131A) (antibody, V domains shown)
VH: QIQLVQSGPELKKPGETVKISCKASGYTFTNYGMNWVKQAPGKGLKWMGWINTNTGEPTYAEEFKGRFAFSLETSATTAYLQINNLKNEDTATYFCAREGDAMDYWGQGTSVTVSS
VL: QIVLTQSPAIMSASPGEKVTMTCSASSSVSYMHWYQQKSGTSPKRWIYDTSKLASGVPARFSGSGSGTSYSLTISSMEAEDAATYYCQQWNSYPFTFGSGTKLEIK
notes: mouse IgG1; also called mouse hCD27.131A
As for B1, the “% of WT hCD27 binding (geo mean FITC)” value with P44A [1] amounted to 158%; with V49A [2], 147%; with G89A [3] it was 113%; in the assay with P8A [4], 44.9%.

Source of the values: patent publication US20190300618A1 (Merck Sharp & Dohme, published 2019).
